Biological target: C1q
Assay: C1q binding assay, format not stated

EC50: 0.9 µg/mL
Substance: rituximab (antibody)
